Assay results reported in PMC10256154, “An unbroken network of interactions connecting flagellin domains is required for motility in viscous environments” (PLOS Pathogens, 2023).

Target: the molecule itself
Assay: SEC; Superdex 200 Increase 10/300 GL; recombinant full-length FliC proteins after NiNTA, PBS buffer

B1: full-length FliC Δ204–205 of P. aeruginosa PAO1, recombinant (natural protein)
chain: MALTVNTNIASLNTQRNLNASSNDLNTSLQRLTTGYRINSAKDDAAGLQISNRLSNQISGLNVATRNANDGISLAQTAEGALQQSTNILQRIRDLALQSANGSNSDADRAALQKEVAAQQAELTRISDTTTFGGRKLLDGSFGTTSFQVGSNAYETIDISLQNASASAIGSYQVGSNGAGTVASVAGTATASGIASGTVNLVGQVKNIAIAAGDSAKAIAEKMDGAIPNLSARARTVFTADVSGVTGGSLNFDVTVGSNTVSLAGVTSTQDLADQLNSNSSKLGITASINDKGVLTITSATGENVKFGAQTGTATAGQVAVKVQGSDGKFEAAAKNVVAAGTAATTTIVTGYVQLNSPTAYSVSGTGTQASQVFGNASAAQKSSVASVDISTADGAQNAIAVVDNALAAIDAQRADLGAVQNRFKNTIDNLTNISENATNARSRIKDTDFAAETAALSKNQVLQQAGTAILAQANQLPQAVLSLLR
notes: Cloned in pET28-a with a C-terminal polyhistidine tag; source: E. coli BL21(DE3), purified (NiNTA, size-exclusion chromatography)
  stoichiometry N: 2
